Data published in the DeepSol protein solubility set.

Assay: soluble on expression in E. coli; label from the status in PepcDB or PDB records

Sequence	soluble on expression in E. coli
SLEKKDTNSLKLLLIGNTGIGEYKSRAERKGLWYKLKRFLWTNEFDQTVSALAKWHAEEKADAVLGLGDFLGIPGPLSARDERFTKRWYDIFVKDAKLDIPWLMTLGEEEALVNPSASVRHHYTGEHPNWYMPNDAYTATFSFSTSMTMANGTIQHEAFNATVINVNTWNLFVGNPIANNMQSMMDRLMWLSDQLYTAVNQTTNWLIIMGHLPLVSTGPQGEQGRLQYVDDLYKNGQPRGPEAVLIQMLLSHYQVDLYVSAHDHFMEYVALEDLSKNTTTAFITSGAAVRLLDKDVGRGWIGRLRGALYPILCWSGRRILYAFHPG	soluble
SLFFFASQIVREENKLLDLLFNLFKDFNSFKLEVKRRDKNFAENSSNFKKYLAVKLFEKYQLKGVINNPEIIANIEILKEHFLVFTER	not soluble
SLGALGVIAFRRGYYYYVGSANSGVHRVKRHFSIKKKKRWHIDYISAKMEVVGAILSKEPECGLAQRFESFERIRGFGCSDCDCESHLFYSPTLNLEFLST	soluble
SLGRQVYNFNPGWRFFKGDIRGAEAVNFDDRSWEVVSTPHTVELMPAEGSGCRNYQGPAWYRKHFVVPTATKGQRVLLHFEAAMGKQVLYLNGKRVQEHLGGYLPFTLDLTANGVQAGDSCLLAVYTDNSNDKSYPPGKPQYTLDFAYHGGIYRDVWMIAKSPVAITDAIDSRTVGGGGVFVHFDKISEKSAQVYVETEIQNDNTRSESVTIETTLTDAEGNVIKRTSGKLSLNSGEKKSIRQQMEVRNPKLWSPDAPYLYRVQSRIKKGNRSIDGGTTRIGIRLAEFRGKEGFWLNGKPFGQLVGANRHQDFAYVGNALPNSQQWRDAKRLRDAGCTIIRVAHYPQDPSFMDACDELGLFVIVATPGWQYWNKDPKFGELVHQNTREMIRRDRNHPSVLMWEPILNETRYPLDFALKALEITKEEYPYPGRPIAAADVHSAGVKEHYDVVYGWPGDDEKEDKPEQCIFTREFGENVDDWYAHNNNNRASRSWGERPLLIQALSLAKSYDEMYRTTGQFIGGTQWHPFDHQRGYHPDPYWGGIYDAFRQKKYAYEMFRSQSPASLQHPLAECGPMIFLAHEMSQFSDKDVVVFSNCDSIRLSIYDGTKTWTKPVVHAKGHMPNAPVIFENVWDFWEARGYSYTQKNWQKVNMVAEGIIDGKVVCTQKKMPSRRSTKLRLYADTQKVNLVADGSDFIVVVAEVTDDSGNVRRLAKENIVFTVEGEGEIIGDARIGANPRAVEFGSAPLLIRSTRKAGKIKVKAHVQFEGTQAPTAAEMEFESVPAELPFCYDEKEG	not soluble
SLGSDADSAGSLIQPMQIPGIIMPGLRRLTIRDLLAQGRTSSNALEYVREEVFTNNADVVAEKALKPESDITFSKQTANVKTIAHWVQASRQVMDDAPMLQSYINNRLMYGLALKEEGQLLNGDGTGDNLEGLNKVATAYDTSLNATGDTRADIIAHAIYQVTESEFSASGIVLNPRDWHNIALLKDNEGRYIFGGPQAFTSNIMWGLPVVPTKAQAAGTFTVGGFDMASQVWDRMDATVEVSREDRDNFVKNMLTILCEERLALAHYRPTAIIKGTFSSGS	soluble
SLIDNPHAQDCWPNQGHMDVQGLTVKYTEAGRSVLQDLSFTVEGGQSVGVLGRTGSGKSTLLSALLRLASTDGEISIDGVSWNSVTLETWRKAFGVVPQKIFILTGTFRMNLDPHARYSDEELWRVAEEVGLKSVIEQFPDKLDFQLEDGGYVLSNGHKQLMCLARSILSKARILLLDEPSAFLDPITLQVLRKTLKQSFSNCTVILSEHRVEPLLECDSFLMIEGSSMKRYDSIQKLLNETSDLKQAMSAAE	soluble
SLIENVDAQADSSWPHRGQIEVRNLTVKYTEAGHAVLKNLSFSAEGRQRVGILGRTGSGKSSLFNALLKLVYTDGEISIDGVNWNKMPLEKWRKAFGVVPQKVFIFTGPLRMNLDPYGCHSDEELWRVAEEVGLKTVIEQFPDKLDFQLEYGGYVLSNGHKQLICLARSILSGARILLLDEPSAHLDPVTIKVLKKTLRQSFSTCTILLSEHKVEPLLECDSFLMMDKGQVKTYDSIQKLLNETSDLKQAISPAE	not soluble
SLKEFELKGINHLALVCRDFQETIDFYTITLGLKLIKNIDLPSGGKHFFIDIGNNNTLAFFWSTKAPESVPGISSVRPEAFLTGDIITAHGSMNHVAFHVPLEKLEEYKEKLVSKGVQTTPVLHHTDVPMSSFYFFDPNGILLEFAANLQSLDTLPAELKEKEAIFLKEG	soluble
SLKNRRVGKKLLMTGGGRCNVTNNRPAEEIISFIPGNGKFLYSAFSQFDNYDIMNFFESNGIHLKEEDHGRMFPVTDKSKSIVDALFNRINELGVTVFTKTQVTKLLRKDDQIIGVETELEKIYAPCVVLTTGGRTYPSTGATGDGYKLAKKMGHTISPLYPTESPIISEEPFILDKTLQGLSLQDVNLTVLNQKGKPLVNHQMDMLFTHFGISGPAALRCSSFINQELTRNGNQPVTVALDVFPTKSFEEVPAKQLTEKQRLSFVELLKDFQFTVTKTLPLEKSFVTGGGISLKEVTPKTMESKLVNGLFFAGELLDINGYTGGYNVTAAFVTGHVAGSHAAEIAEYTYLPIEEV	soluble
SLKSFPHGEKAPFPLTLIHINDLHARFDETNQKSSTCTNSKECIAGIARVYHTIKQLKSEYKTKNPLYLNAGDNFQGTLWYNLLRWNVTAYFIKELPPDAMTLGNHEFDHSPKGLAPYLAELEKMKIPTVVANLEKNGEPALKDSKIAPQIVLKVGNRKVGVIGALYDKTHLVAQTGMVTLTNSIEAVRKEAQELKKKNVNIIVVLSHCGLDGDKQLAEEAGDLIDVIVGAHSHSLLLNKDAKVPYDTKYDTIEGDYPLVVKKSNNHTVLITQARSFGKYVGRLTVNFDCEGEVQSWEGYPIYMNNSVKQDEEVLRELEPWRAEVKRLGTQVIGTTEVFLDRESCRWCECTLGDLIADAYADQYTNSTVQPVAFVQAGNFRNPIEKGDITNGLAIEAAPYGSSVDMIKLSGADLWSAIDHSFTLDDEFRYNTAQVSGMTVVADLSKKPYERVQSIDIVGANGAKTALKKDQIYYVAVPSYLADGKDGFAMLKKGTNRVTGPLDSDVLIEYVRKRQTIAKTMFQEKRVVIENHTNGTCSWDLDSQRYKPK	not soluble
SLPHIITRKVISVEQNWLQQLANAISDPLQLLQQLEIDPSPWQDGFEARKLFAQRVPQSFVDRMQKGNPADPLLRQVLPLSAEFEIHPGYSHDPLDEQNNTVPGLLHKYKNRCLLIVKGGCAINCRYCFRRHFPYEDNKGGKSAWQQSLDYIAQNPQLNEVIFSGGDPLMAKDHEIAWLMERIAAIPHIKRLRIHSRLPVVIPARITDELVELFAQTRLQVLLVTHINHANEINLELKQQMARLRAVNVTLLNQGVLLKGVNDTVDAQVSLSETLFDAGILPYYLHVLDKVQGAAHFYVSDDKARQIMAGLIEQVSGYLVPKLTREIGGRPSKTPLDLHLE	not soluble
SLPVRESLQKQVKILIGLGNLGFGGYRGLYTRFTNPNGFLEPASSDLLLINERRNLSVIGAVSRTFSVPSVSGPAFQVCGYHIDLLLSDPCKSMASLGSKSLFVDRHSASLVSKRFTGGMVSGDGPNRGRISMRLRGKDHNEKSTICAYFAYRGAKRWIYLNQQRRGMGFRGLHSSLSNRLSAGNAPDVSLDNSVTDEQVRDSSDSVAAKLCTKPLKLVSGSCYLPHPDKEATGGEDAHFICAEEQALGVADGVGGWAELGIDAGYYSRELMSNSVNAIQDEPKGSIDPARVLEKAHTCTKSQGSSTACIIALTNQGLHAINLGDSGFMVVREGHTVFRSPVQQHDFNFTYQLESGRNGDLPSSGQVFTVAVAPGDVIIAGTDGLFDNLYNNEITAIVVHAVRTNIDPQVTAQKIAALARQRAQDKNRQTPFSTAAQDAGFRYYGGKLDDITVVVSYVAASKEEGKH	soluble
SLRAERLTSRVKALFSVLNYERARRPGLLGASVLGLDDIHRAWRTFVLRVRAQDPPPELYFVKVDVTGAYDTIPQDRLTEVIASIIKPQNTYCVRRYAVVQKAAHGHVRKAFKSHVSTLTDLQPYMRQFVAHLQETSPLRDAVVIEQSSSLNEASSGLFDVFLRFMCHHAVRIRGKSYVQCQGIPQGSILSTLLCSLCYGDMENKLFAGIRRDGLLLRLVDDFLLVTPHLTHAKTFLRTLVRGVPEYGCVVNLRKTVVNFPVEDEALGGTAFVQMPAHGLFPWCGLLLDTRTLEVQSDYSSYARTSIRASLTFNRGFKAGRNMRRKLFGVLRLKCHSLFLDLQVNSLQTVCTNIYKILLLQAYRFHACVLQLPFHQQVWKNPTFFLRVISDTASLCYSILKAKNAGMSLGAKGAAGPLPSEAVQWLCHQAFLLKLTRHRVTYVPLLGSLRTAQTQLSRKLPGTTLTALEAAANPALPSDFKTILDEG	not soluble
SLRQIRTVIQYQTVRYDILPLSPVSRNRLAQVKRKILVLDLDETLIHSHHDGVLRPTVRPGTPPDFILKVVIDKHPVRFFVHKRPHVDFFLEVVSQWYELVVFTASMEIYGSAVADKLDNSRSILKRRYYRQHCTLELGSYIKDLSVVHSDLSSIVILDNSPGAYRSHPDNAIPIKSWFSDPSDTALLNLLPMLDALRFTADVRSVLSRNLHQHRLW	soluble
SLSELMGKRVLIIDDNLTSQKILINQAQSWGMFTCAVDSGEKALEWLKRGITFDVAILDMNLPDMNGLELVREIRKQPNCTRLPLIMLSAITETEKTFQSSEEEFVAVLCKPVQRSQLYNVLMEIFSEIPRAPIRVTEG	soluble
SLSHGKGTDMLPEIAAAVGFLSSLLRTRGCVSEQRLKVFSGALQEALTEHYKHHWFPEKPSKGSGYRCIRINHKMDPIISRVASQIGLSQPQLHQLLPSELTLWVDPYEVSYRIGEDGSICVLYEEAPLAASCGEG	soluble
SLSHRTDGSLLFPLSLVHINDIHAHWEEIDTASVTCDPKRDGAAEQCLGGYARTVTIVRQLLQERPNPVYLNIGDNFQGTLWYNIHRWNATAFFLNLLPADAVTVGNHEFDDGIAGVVPFLEAIQSPVLLVNVDNSKEPSFSKFRPSMVLERAGRKIGLIGVILRTTYNMADTGALVFEDEAETVRLEADRLAAEGVDIVVVLSHCGLDVDHIIAANAGPNVDIIVGGHSHSFLYSGQNDKIPMTPASEYPTVVNQPDGHRVLIVQASAYTKLVGDIVLYFDDQGIVQHWEGNPIYLSNDIVPDAEVLEAIAPWKVAIDAVGERTIGATAVDLLKPPCNFGECVLGNLIADSMVEAFVPMAEEGSWTYASIAAIAVGRIRQSLVPGDISFKHLIEVLPFENKLVCLELRGFQLVGLLEHGAELSWDEHRFNAKNLMHVSGLRVVYNVTNPIGHRVLSVEALCQDCSMPSYAPVEMFKMYRVVTVSYLAEGGDGFEIFPRYGRNRVVAPMDDVQAFEEYVKPRSPVAPVLEERIQILN	not soluble
SLSIELDLQLAVENEHGLPSEAEFALWLTRTITPFQAQAEVTVRIVDEAESHALNLNYRGKDKPTNVLSFPFEAPSGMEMDLLGDLVICRQVVEREAIEQNKPLQAHWAHMVVHGSLHLLGYDHIEDDEAEEMESLETEIMQEMGFTDPYLAEKE	not soluble
SLSTIGSMMSIYSEAGDFGNIFVTGRIAFSLKYEQQTQSLVVHVKECHQLAYADEAKKRSNPYVKTYLLPDKSRQGKRKTSIKRDTVNPLYDETLRYEIPESLLAQRTLQFSVWHHGRFGRNTFLGEAEIQMDSWKLDKKLDHCLPLHGKISAESPTGLPSHKGELVVSLKYIPASKTPVGGDRKKSKGGEGGELQVWIKEAKNLTAAKAGGTSDSFVKGYLLPMRNKASKRKTPVMKKTLNPHYNHTFVYNGVRLEDLQHMCLELTVWDREPLASNDFLGGVRLGVGTGISNGEVVDWMDSTGEEVSLWQKMRQYPGSWAEGTLQLRSSMAKQKLG	soluble
